Assay: soluble on expression in E. coli; label from the status in PepcDB or PDB records

| Sequence | soluble on expression in E. coli |
| --- | --- |
| MKKAADRPTSAVNGRHESPATSTNNTQNSGTPSLNGQDPLRSTSSSPLFGTEPLPEDDHASCPYCQQDFRKPRVLDCLHSMCEDCIIAQLDGHLQAKSAAIEEKKRATAAMLDCELETPKVKERPTPPGVIRCPICSQESHVGNDVRYVHAMLLDFVRLAEMKEVEVEKMVAHHRKPCTACKSEQEAIAFCDQCSSDLCENCTTAHTVMNLFQGHTVTTFADLRQPGAHPELRQVMCSTHNQHMRYLCAACETAACKQCLEVDHLNHKIIDINELVINAIREDVTSTVDRVEKKYNNSVADMNSLPDKSQQLNEQYEIAKYRVDKHYEELRNSIEEAYQKSVNDLEEARIRQESNIDEMYRKSQVNEARVHDAINFTRRLLTKGNGLELVVSRKKVIQQFGNLSHAIPSHGHQVELEFYTPSKKQIDHFVHQLTGTVIGRVIQPTVKDVGNATAASTDRSERGGSQPGGGRSSSAANPSQQDEWGRPVYSQNPQLGAIGGERKKNTQNGTNGTRGDSNAFGGWPPSSHPPESTTPPPVTGPQTMITGAPTQTAAPIVSQQQLSNLPNAAAMAAAAAGMRPDLVALAANHMDLAALTNGSTNGSQTPLPESIFPAMWNARQGLPAVATPTTTGLSTNASAAYMQQKLAAAQLQALASHRLNPQIMSMNNLRTNQTIQEFLAMNAMGNLSLNPQLTSAAAAALAATAAANSAVTTTASDVGQSQNSANAQRVSDLKVHSVFGTSQQGSTIRELHCPSGFCLSDTDDILIADTNNHRVVVCGPPHPWKIGRPGTDDGQLCFPRKVIALRGEAVRYVVLDKGGDGKTRAQIFEARGEFVKRLNMMALVPRGGIEVSAAAATPNGQLLLVDTAGFVYSIDVDAPRVTFWFDASTQLGEASDVAMFDNLIYITDFKHHCVQVYTSEGKFIRKMGEPSQTPYPIGIDVSKAGEVLVADTHGNHLHVVVFSPEGQHIHSFTHNEFRLSRCVGLRIAKSGHIVTLCKHNHTLFVFKPLILPNGLPVPTPVPHATSLISKFQ | not soluble |
| MKKFAAVIAVMALCSAPVMAAEQGGFSGPSATQSQAGGFQGPNGSVTTVESAKSLRDDTWVTLRGNIVERISDDLYVFKDASGTINVDIDHKRWNGVTVTPKDTVEIQGEVDKDWNSVEIDVKQIRKVNP | soluble |
| MKKFCLSYSSGKDCLLAMDRLVQAGNQPVALVTTLSDEINRSWFHGIPISVLEAAAEALDLPLVISHNNETNYTEKVVEALQETKKLGAETVCFGDIDIEQNGAWDRQVALSAGLEPQLPLWQENREALVKEFLAKGYTAIIKTVSKEAGIPIKFLGEPLNETFITYLKEHQLDICGENGEYHTLVIDGPLFKKRLNYYTSGIYESPYAYSLIIDALEHHHHHH | soluble |
| MKKFFQEIKADIKFKSAGPGQKLTDSAGEKTTKGKSPQLALRQPRQGPTDEAQMAAAAALARLEQKQPRARGPTSQDSIRNQVRKELQAEATSSNNPGAPGTNSVPEPKEEISPHLAVPGVFFICPLTGVTLRRDQRDAHIKQAILSHFSTDPVAASIMKIHTFNRDRDRVKLGVDTIAKYLDNIHLHPEEEKYQKIKLQNKVFQERINCLEGSHEFFEAIGFKKVTLPVPDQEGQEEFYVLGEDARAQPQNLARHKQQLLDAEPVRATLDRQLRVFRPSALASHFELPSDFFSLTAEEVKREQRLRTEAVERLSSLRTKAMREKEEQRELRKYTYALVRVRLPDGCLLQGTFYAREKLSALFRFVREALQNDWLPFELRASGGQKLEENEALALNECGLVPSALLTFSWDASVLEDIRAAGAEPAKSVLRPELLAAIEQLS | soluble |
| MKKFIGSVLTTTLILGGCSAMENESNKDTNTETKSVPEEMEASKYVGQGFQPPAEKDAIEFAKKHRKEFEKVGEQFFKDNFGLKVKATNVVGKDDGVEVYVHCEDHGIVFNASLPLYKDAIHQKGSMRSNDNGDDMSMMVGTVLSGFEYRAQKEKYDNLYKFFKENEKKYQYTGFTKEAINKTQNVGYQNEYFYITYLSRNLKEYRKYYEPLIHKNDKEFKEGMQQARKELDYTANTDAVSTLFSTKKNFTKDNTVDDVIELSNKLKEKPNMPQKSQVTIQLGKSSINTKKPFYDDINPIEGLEHHHHHH | not soluble |
| MKKFTLEEFLDLLKKYNVEEIEGVKIEGDLEIEFEGSSIDLSAIAPLYSMLSEFGNFLYHANMALGYLQRLSAALGIPTPFAAQPQLAPAAPAAPAEVPAVEELKIPAELVRAKFEPYKEEYPGKIEEVVLGATKADGGTREYTVTLGGERSLAFYTFDAPQPHLPAIAIDVFDRRPMLAKAVRMHYEDVLDNPAEWARKCVKKFGADLVTLHLISTDPLLDDTPASEAVKVLEDVLQAVKCPIIVGGSGNKEKDPEVLEKAAEVAEGERIMLASATLDMDWERIANAAKKYGHVVLSWTQMDINNQKTLNRYLLKRVEMPRDSIVMDPTTAALGYGLDYAFTNMERIRISGLKGDTDLNFPISSGTTNAWGAREAWMVDSPIEEDTPWGPRELRGPIWEIITGLTLSLAGVDLFMMMHPVAVAVLKEVFNTLGGKVSGGVADPGEWIFMEV | not soluble |
| MKKISRKEYVSMYGPTTGDKVRLGDTDLIAEVEHDYTIYGEELKFGGGKTLREGMSQSNNPSKEELDLIITNALIVDYTGIYKADIGIKDGKIAGIGKGGNKDMQDGVKNNLSVGPATEALAGEGLIVTAGGIDTHIHFISPQQIPTAFASGVTTMIGGGTGPADGTNATTITPGRRNLKWMLRAAEEYSMNLGFLAKGNASNDASLADQIEAGAIGFKIHEDWGTTPSAINHALDVADKYDVQVAIHTDTLNEAGCVEDTMAAIAGRTMHTFHTEGAGGGHAPDIIKVAGEHNILPASTNPTIPFTVNTEAEHMDMLMVCHHLDKSIKEDVQFADSRIRPQTIAAEDTLHDMGAFSITSSDSQAMGRVGEVITRTWQTADKNKKEFGRLKEEKGDNDNFRIKRYLSKYTINPAIAHGISEYVGSVEVGKVADLVLWSPAFFGVKPNMIIKGGFIALSQMGDANASIPTPQPVYYREMFAHHGKAKYDANITFVSQAAYDKGIKEELGLERQVLPVKNCRNVTKKDMQFNNTTAHIEVNPETYHVFVDGKEVTSKPANKVSLAQLFSIF | soluble |
| MKKITINDLMKWKQEGRKFATSTAYDASFAQLFESQEMPVLLVGDSLGMVLQGETDTLPVTVDDIAYHTRCVRKGSPNCLLMADMPFMSYATPEQACENAAKLVRAGANMVKIEGGDWLVDTVKMLTERAVPVCAHLGLTPQSVNIFGGYKVQGREQDKADRMVRDALALQEAGAQIVLLECVPAELANRITQILDVPVIGIGAGNGTDGQILVMHDMFGISANYMPKFSKNFLAETGDIRQAVAKYIEDVASGAFPDLAHTIALEHHHHHH | soluble |
| MKKKIIIAIVASAITMTHFVGNTYADSKTEVSVTAPYNTNQIAKWLEAHAKPLKTTNPTASLNDLKPLKNMVGSASIVGLGEATHGAHEVFTMKHRIVKYLVSEKGFTNLVLEEGWDRALELDRYVLTGKGNPSQHLTPVFKTKEMLDLLDWIRQYNANPKHKSKVRVIGMDIQSVNENVYNNIIEYIKANNSKLLPRVEEKIKGLIPVTKDMNTFESLTKEEKEKYVLDAKTISALLEENKSYLNGKSKEFAWIKQNARIIEQFTTMLATPPDKPADFYLKHDIAMYENAKWTEEHLGKTIVWGHNGHVSKTNMLSFIYPKVAGQHLAEYYGKRYVSIGTSVYEGQYNVKNSDGEFGPYGTLKSDDPNSYNYIFGQVKKDQFFIDLRKANGVTKTWLNEQHPIFAGITTEGPDIPKTVDISLGKAFDILVQIQKVSPSQVHQLEHHHHHH | soluble |
| MKKKIIKKKSAAAPASKIPDDFEMPMARVADEDDVAEDYKVVDMSEIAAPIIEFEMPNLVEKSPEEFKNSEVTGEASREVSVKTPKKVTKRVRKSSKTDKTDQIPLTAEKLNNELVALRATCLTAKNQLMSRIVRQKKQLESKKSQKVDGKSKEERDRKIARLVEEILGLKTFDKDSVAKFAALNTKSLAELKINGKTEVAERLMYKLVCQSIIVEKIQSIREKYTEWNKTAAFFMQRLGQQYANKPEKKSKKSTEKKELNIENLEDLNNEDEDSENEKEEEIEENEEDYDQSDIEMLDSDEEEAGEEAAKNRRNLLLGLIGVQEDKNRPSLAPKKRKLVEEEDEEVETVKNQKKMKQIFEKELKSKEVKNPKKSNKSTKKPTKSAPIVKKVEEKKVEENEVSDDESDQKTLVMKVDLSKGGKIAKAQKFSTTAPKSAKIVAPVSEDENDDDESSSFFLPKSGVVAPRKIIPKKPSENVEKVDKRFQKGTQKKSEAVVEKKKGSSKSAVSGEMHPSWIASQLKKKELASAKPCGKKITFGDDEEE | not soluble |
| MKKKPLTPEQLDDAKRLKELFNAKKKALGISQESVAHELGVGQSAVNQFLNGVNPLNITNAAAFAKVLNEPISSFSPSLAKELAKMAESLSITTRSGAKDKPAVSVANSYPLISWISAGNWYEAIEPYTLRDIEIWPESTKHAHESAFWLSVKGDSMTSPSGISFPEGMIILVDPEKEPMPGNFVIAKLTDDNEATFKKLVVDAGIKYLKPLNPAYRLIELNGNCKILGVVVDARWLQID | not soluble |
| MKKKQVMLALTAAAGLGLTALHSAPAAKAAPLHDISVSMPSSDTYIIKAGKLNVRTEPNHEGDILGTVSSEQKVKVDRFVNADWAQIHFKGKKAYISTHFLMKTASQAKTTKQTAFYTPTPENGKAKQLSSGTEVTILGWGFSENGGFDFTWAFVDYGGVKGYIHTKDLQMRLEHHHHHH | soluble |
| MKKLAFAVTVASGAAAVIANHEADASTQHTVKSGESLWSISQQYGVSVDEIKQSNDINNNMVFPGQVIEIGGSSSQESGSTSNNTSNGSSHTVQSGESLNIIANQYGVSVDEIIAANNLNGYLIHPNQTLTIPGTTGTGGSGGTATETPSSNTGGSTASDANLYDWGQCTWHVFNRRAETGQPISTYWWNADHWANNASADGYTVNNAPTAGSIMQNYEGPVGHVAYVERVNPDGSILISEMNYNTPPGTVDYRTIPASQASSYNYIHLEHHHHHH | not soluble |
| MKKLLLSILFVGGGLISLSNNFTGPRYRVDISTGFIDDRRFALTSGYKFFSGSVSVLPEWELKFNKKFDISFGPKVSLNFENFIGSMDATTINPSIILGGEIDFNYKVIEDVKIYAGMEVGTGIGFQAFVSSSHNHFQGPELKTESKISLGVKVKDKFNLAFYTGDIKGVIGVEAGYTF | not soluble |
| MKKPVYLTPEGYRRLQEELNHLKTVKRQEISADFEQALEEGDLRENAGYDEARRAMWQNEARIAQLEDLLSRAVIVENGSFDQVALGCQVELETETGERLSLAIVGSHEADIFSGKISDESPLGQALLGKKVGDVVEIRGKKGAQVYTILEIKPL | soluble |
| MKKSSEVMHQACDACRKKKWKCSKTVPTCTNCLKYNLDCVYSPQVVRTPLTRAHLTEMENR | soluble |
| MKKTYVLDTNVLLQDPHAIFAFQDNEVVIPAVVLEEVDSKKRYMDEIGRNARHFSKLIDQLRGLGKLHEGVPLENGGKLRIELNHKSYEKVKDSFAEMTNDNRIIAVALNLSLEETEKPNGNQVILVSKDALVRVKADALRLKAEDFLNDRVIQYDRGY | not soluble |
| MKKWWLAAVVAMIAVGGCAKEETEQKQSLQGANLLRTQTSGTAKHAELNQGPAERAASYLRGRDDVRDVVAVNSEDRLLIAYQIPHMKRWSRKQIEKDIDQKLRDLFPGYDVVSSSDLKIFWKTKELKANMDNRRWDERKVNREIRRIEKLSKEQT | not soluble |
| MKKYLFAEQGFVEKPDFGADCWVCVETPDAEDMKFLIDTLNVPEDFLSDIADADERPRVEHDGDWHLTILRIPIESRLSGVPYVTVPMGIATRSDVTVSVCYHRAPMLADFLLHTRRKRIKVLNRTELVLRLIYSSAVWFLKYLKQINNEVTISERELERSIRNEDLIHLMMLQKTLVYFSTSIRGNEAVLGKIRASGENRIDEELVEDVRIELRQAYNTVNIYSDILSGTTEALSGVISNNLNTIMKR | not soluble |

From the DeepSol protein solubility set
